One may read the Kd as the constant that tells how readily two partners part at equilibrium.

This passage reports Kd results from patent US20240391959A1 (Bicycle, published 2024).

Test [1] concerns the target T1, Recombinant human transferrin receptor 1 (TfR1), His6-tagged, a.a. 89-760 (human, UniProt P02786 89-760).
T1 construct: range 89-760; SPR used ACRO Biosystems CD1-H5243 (His6, a.a. 89-760); also called Human TfR1; CD71; not shown: His6 tag
Description: SPR, TfR1 on chip; Table 2, geomean of n = 5. On the technique in general: In SPR one partner is held on a chip, and binding of the other changes the refractive index at the surface.

In test [2] the target is T2, Recombinant cynomolgus transferrin receptor 1 (TfR1), His6-tagged, a.a. 89-760 (cynomolgus, UniProt H9EXL1 89-760 (rhesus entry)).
T2 construct: range 89-760; Bought, ACRO Biosystems TFR-C524a; also called Cyno TfR1; Cynomolgus TfR1; not shown: His6 tag
The experiment in a line: SPR, TfR1 on chip; Table 2, geomean of n = 2.

Starred links: 1 amine or outer side, 2 acyl side, 3 side chain; linkers in the order of their positions; H or OH if unused. Positions of bridges follow the written chain, without caps; N, C: chain ends. No end group written: not given here. TATB = O=C(C[*:1])N1CN(C(=O)C[*:2])CN(C(=O)C[*:3])C1

T2 sequence (chain, as listed by the source): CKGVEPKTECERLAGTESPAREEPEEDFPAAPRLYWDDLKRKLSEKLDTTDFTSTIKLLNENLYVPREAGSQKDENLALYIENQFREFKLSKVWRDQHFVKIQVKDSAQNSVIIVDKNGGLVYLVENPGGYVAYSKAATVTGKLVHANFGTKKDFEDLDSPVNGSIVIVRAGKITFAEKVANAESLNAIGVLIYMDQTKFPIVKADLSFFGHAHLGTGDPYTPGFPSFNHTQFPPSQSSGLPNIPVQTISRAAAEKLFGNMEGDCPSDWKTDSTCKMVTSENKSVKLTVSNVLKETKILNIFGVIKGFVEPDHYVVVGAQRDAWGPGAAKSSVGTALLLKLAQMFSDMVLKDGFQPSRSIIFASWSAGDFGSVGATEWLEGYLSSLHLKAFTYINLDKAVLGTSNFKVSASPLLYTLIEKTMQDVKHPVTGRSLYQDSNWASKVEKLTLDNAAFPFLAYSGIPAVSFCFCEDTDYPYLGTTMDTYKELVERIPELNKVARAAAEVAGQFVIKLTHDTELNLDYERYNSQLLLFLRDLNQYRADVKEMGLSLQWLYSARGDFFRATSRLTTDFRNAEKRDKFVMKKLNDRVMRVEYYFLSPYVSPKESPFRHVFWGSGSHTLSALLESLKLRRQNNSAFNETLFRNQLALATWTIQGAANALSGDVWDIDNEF
T1 sequence (P02786 89-760 limits assumed): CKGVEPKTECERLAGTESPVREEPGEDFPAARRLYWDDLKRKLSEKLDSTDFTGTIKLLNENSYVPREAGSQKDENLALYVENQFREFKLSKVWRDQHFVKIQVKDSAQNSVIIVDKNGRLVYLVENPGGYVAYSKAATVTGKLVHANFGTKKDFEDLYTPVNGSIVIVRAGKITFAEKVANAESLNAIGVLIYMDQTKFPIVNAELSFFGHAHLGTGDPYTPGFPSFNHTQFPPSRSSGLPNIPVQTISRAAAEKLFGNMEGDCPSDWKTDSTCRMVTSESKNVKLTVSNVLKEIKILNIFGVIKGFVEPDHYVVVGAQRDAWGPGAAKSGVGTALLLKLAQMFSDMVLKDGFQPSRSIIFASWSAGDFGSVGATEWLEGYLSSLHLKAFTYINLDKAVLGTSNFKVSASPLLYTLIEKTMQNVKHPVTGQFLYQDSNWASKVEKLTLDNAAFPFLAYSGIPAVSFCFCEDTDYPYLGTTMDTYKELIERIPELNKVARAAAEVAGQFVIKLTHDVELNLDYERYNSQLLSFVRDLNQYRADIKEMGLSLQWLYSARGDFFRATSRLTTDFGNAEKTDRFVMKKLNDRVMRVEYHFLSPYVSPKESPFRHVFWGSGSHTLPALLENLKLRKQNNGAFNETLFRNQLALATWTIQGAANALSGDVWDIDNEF

B1: BCY15468 (peptide)
peptide: ACSPDAHLGCISYCA
modifications: linker 2-10-14 via TATB
B1: in test [1], the Kd was 0.0378 µM.

B2: BCY13989 (peptide)
peptide: ACPPDSWQGCISYCA
modifications: Cys Ci, Cii, Ciii on TATB scaffold
In the case of B2, the Kd in test [2] was 3.44 µM.
